± gives the uncertainty stated by the source.

The nature of the data set: amyloid nucleation score (Sup35N fusion, yeast selection) (log enrichment); library NNK2; higher = more nucleation; inactive = no reads after selection. The essentials:
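Using DiMSum, nucleation scores were taken as the log enrichment of output over input reads, centred on the mode score of non-aggregating sequences. The input and output reads came from Illumina sequencing of plasmid inserts, with sequences under 100 input reads excluded. The yeast were psi-negative, expressed Sup35N fused to peptides of 20 random codons, were induced with 100 μM copper sulfate for 24 hours, and were grown 7 days at 30°C on medium lacking adenine and uracil.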
In the case of NMWLCNGSGRHRFWLR, the amyloid nucleation score stood at 0.269 ± 0.51.
As for FKSLVVSLCIPSDMNNLKCS, the amyloid nucleation score is -0.474 ± 0.79.
The figure for MAHWSSSNSTVVLGCLAWML is 6.17 ± 0.081.
The figure for ITAGVPVFYL is -1.22 ± 1.1; for RRLKLRINMVFLEYGFKSKF it is 3.8 ± 0.046.
In the case of FNCHCSLSLVNHLASFTLSF it was 1.8 ± 0.16; in that of RCSGVP, 0.908 ± 0.23.
Substance MWINHDPGWRCYYLYFPFL returned an amyloid nucleation score of 3.59 ± 0.074.
As for KVVGGLVLHGSL, the amyloid nucleation score entry was “inactive”.
In the case of CNVSCFVRVVFKWIIS it was 2.33 ± 0.24; in that of GHAHLCSMYVVSIRLHLSMV, 5.59 ± 0.081.
PTQVSDLDNLTDCPRGVLPC yielded an amyloid nucleation score of -0.735 ± 0.48.
The substance DVGSPWLNYSSFFIFWSTIS yielded an amyloid nucleation score of -1.02 ± 1.1.
In the case of GLYRGTLVYKTYVLGNNKPL it was -1.33 ± 1.1.
With TGLVMVHSTRVPKRLGMLCL, the amyloid nucleation score stood at 0.967 ± 0.33.
In the case of QGLGTRLRDRLTVYCRFTAF it was -0.69 ± 0.61; in that of CLYCVMASQWGCFGLVESVT, 1.73 ± 0.47; in that of SRYACVRLICQVWPLWVGSG, 0.875 ± 0.43.
In the case of VFGKGQWVDLIRRREDVYTN it was -0.759 ± 1.1; in that of GRYNVDFKSIMRYIECGKTA, -0.27 ± 1.1.
The figure for ECRRF is 2.78 ± 0.12; for GFLELCMFKVFFQRCARTIS it is -1.04 ± 1.1; for TPFAHSGSWCNSERLVPRLV it is 0.364 ± 0.33.
In turn, YQMADVPLNRMGHYPVYEGW returned an amyloid nucleation score of -0.845 ± 0.76.
The entry for SFYWYRCVDIADSTSKYDGF is “inactive”.
The figure for HCLGVFARFWIWVGPDGLVI is -1.2 ± 0.78; for AWSYVQFRTFYALTVPTSAL it is -0.125 ± 0.38; for RFNMMKSKQMELSN it is -0.504 ± 0.46.
GVNSLVERFNLWYVLGERTF gave an amyloid nucleation score of -0.35 ± 0.33.
The figure for VYNTFLREFHS is 1.99 ± 0.13.
The figure for NETCGYLNKNWLL is 0.04 ± 0.45; for SQHSVARIANGLLTSGTMVL it is 0.875 ± 0.36.
For the substance LECRLC, the amyloid nucleation score amounted to 0.308 ± 0.25.
The figure for LWDMIRNGC is -0.769 ± 0.45; for KITAGSGVL it is 0.904 ± 0.81.
In the case of SMNVRTKLDWSTTRVDSGLR it was 0.662 ± 0.21; in that of IPILSFMRGLALSRSATYMS, “inactive”; in that of ICRPGYGY, “inactive”.
The figure for KLFFTDGFLYGNPLLSDGLD is -0.58 ± 0.39.
For the substance HLCHLLRSEHCRNGGSEKSR, the amyloid nucleation score was found to be 1.61 ± 0.29.
Substance FIFIMGIFERLH came in with an amyloid nucleation score of -1.54 ± 1.1.
In the case of CCAGWYSGEEGRMGSRL it was 0.511 ± 0.18; in that of VNHLYYCFCTLITHEVRVVS, 5.363 ± 0.034.
The figure for CRARNCVRLW is 0.165 ± 0.65; for NMGIRRFKFYIVNA it is -0.965 ± 0.78; for IVLQRVGCFKDAGGNRVWEM it is 0.264 ± 0.45.
In the case of VYSLYNDRYYC it was -0.406 ± 0.31.
As for YRDRDLC, the amyloid nucleation score is -0.339 ± 0.34.
In the case of SARVSWGCWHFAMYSRCIRQ it was “inactive”; in that of RYNPCD, 0.334 ± 0.44; in that of WGFIAVDGRPIVASLRYSMR, 3.51 ± 0.084.
The figure for DRARRVVIIWVYLIDRVNVR is 0.004 ± 1.1; for WCTIHYDLMLVVRTNSSRSI it is 1.08 ± 0.18.
The figure for SDRMELWKNESRLYIGMAVR is 0.451 ± 0.49.
In the case of CFMDFQWHMRSHG, the amyloid nucleation score was -0.265 ± 0.3.
In the case of YFELKLKNARVGRFIDWRAT it was 1.77 ± 0.27; in that of HRAWSSVCSKYSSTGTRNLI, 2.99 ± 0.14.
Consider VRMNPITAGLCVQCLHTQRF, for which the amyloid nucleation score is -0.654 ± 1.
In the case of MMSEVLKDVSCHFIPLGGQV it was -0.694 ± 0.48.
The figure for VWTLYYHHIGSAFSTCNRLF is 4.5 ± 0.062; for DMNLRLSEWVDFCSIGLFVK it is -0.272 ± 0.35.
The figure for ELWRYDINIERYKSTRSVYH is 3.08 ± 0.055.
As to TSIYYISNIA, the amyloid nucleation score turned out to be 0.568 ± 0.24.
The figure for SDLGCLRYRTKGGAVGVDGV is 0.653 ± 0.21.
In the case of SVWGKD it was 0.073 ± 0.63.
In the case of YGYIFISCENVRTQRSVIDG it was “inactive”; in that of LDIITGLSSISGTHIFGSSP, -0.627 ± 0.78; in that of ALYLL, 0.154 ± 0.23.
IDCRELFVSLQVNRMLE registered an amyloid nucleation score of 0.234 ± 0.49.
In the case of FFISLDRVMLTGLKLTCPLG it was -0.266 ± 1.1; in that of GSARCNTSFCCQQVYFYGCG, 8.486 ± 0.064.
The figure for VLNDFFWEHLPMGHNVGLTL is -0.252 ± 0.55.
The figure for KAGVKLSLGNCRYSTL is 0.527 ± 0.8; for MSPNLIMMHHCH it is 0.094 ± 0.41; for LVLENHWYLLVCRNPVQ it is -0.213 ± 0.65.
As to IFDIWTSIAVRDLLLNGRSW, the amyloid nucleation score is 0.561 ± 0.31.
In the case of CLSVCCEDFNRSLTHYASSL it was -0.743 ± 0.76; in that of RLRGFIPLCTYIFPNFRGLL, -0.718 ± 0.65; in that of LLRRGVDIWVEHFRE, -0.613 ± 0.64.
The figure for RMLFVHPVGYGCEAAVGSSW is 1.09 ± 0.23.
Take VDMTGCLTGVDVTSLRNIPL: the amyloid nucleation score was 0.931 ± 0.38.
Turning to WIYSFTMFATWTNVT, the amyloid nucleation score worked out at 0.092 ± 0.79.
The figure for TGFCGRHYDLSSSTEDLYLL is 0.606 ± 0.8; for HMYVGHGLNVFAYISMLGVY it is “inactive”.
In the case of LWIVMVVRTTQQTYATMGHG it was 0.955 ± 0.29.
The substance SARPELCMPIIRLCGSREDQ yielded an amyloid nucleation score of -0.056 ± 0.22.
In the case of VMVGLALYLKARGSNVDCGL it was 3 ± 0.17.
The figure for LDSVQWNGCMIRYSYLGMGW is -0.138 ± 0.3; for ILSARRCFAQMVFVLYQNLV it is -0.171 ± 0.33; for QFNYHNLNLTNFKSLCASTD it is 0.019 ± 0.61.
GCLLLPKGASHKIDYCGSDV gave an amyloid nucleation score of 0.396 ± 0.35.
In the case of HTITNTL it was -0.06 ± 1.1.
In the case of NVRTYCGFKSSNIRRWVSRH it was “inactive”; in that of LVKTFYKKWIVREREFWILR, -0.176 ± 1.1.
The figure for AMFTSSMIRTLGCCSGSQTA is 4.14 ± 0.13.
KILRVKRQGRGSRNR returned an amyloid nucleation score of -0.055 ± 0.55.
In the case of THTSLLSLVP it was -0.291 ± 0.76.
In the case of FLLWIHF it was 1.04 ± 0.44; in that of SNHVKCGWICKFSLRIQSVY, 0.129 ± 0.65.
The figure for QVWSFDGCS is -0.15 ± 0.4; for TVYSHEKGVQLWFLLIVALL it is 0.27 ± 0.48; for LCYWCTCR it is 0.141 ± 0.41.
For YSGLSNLLGKMKRGSSLWVD, the amyloid nucleation score result was “inactive”.
In the case of SDCGHAEVVCAGNHGGTSYP it was 0.326 ± 0.27; in that of YRSAYFMFTVDHFGLELFFL, 2.45 ± 0.12; in that of LCAGGVGRRWLVLDTAECDG, 0.59 ± 0.64.
In the case of AVALYVSDSQDHPGNRNVLV it was 2.45 ± 0.099; in that of DFVPNGCNCINSGWDFRQVD, -1.88 ± 0.64.
In the case of LVTEVEFMSTAAGKECYCNI it was -0.555 ± 0.35; in that of FCRSYCVLVYLWSPYVTGSK, 0.349 ± 0.5.
With QWMRSWNDTGRAES, the amyloid nucleation score amounted to 2.13 ± 0.1.
The figure for ITCHGVVFSWLTRELLYTGL is -0.702 ± 0.45; for RMCMR it is 0.017 ± 0.34.
In the case of AMERDYFLTVTCDRVKYLGE it was 1.01 ± 0.4; in that of TGGISYLD, “inactive”; in that of FSDNTVNTQQVEGIYQIDPN, -0.705 ± 0.46.
In the case of GVVWKYRIFPWTFPHNFFHL it was -0.665 ± 0.39; in that of QWLKTVSLS, 0.449 ± 0.8.
As to RLGWNGE, the amyloid nucleation score was -0.709 ± 0.49.
The figure for GPTRSYRLAASGAGEGCKTW is 2.09 ± 0.1; for SDICRREMHNTAIFLALF it is 1.56 ± 0.1.
In the case of HLGVGFLWSVRFIYMTFGFS it was “inactive”; in that of CIDVRDTWNVPSVDYSMVLY, -0.363 ± 1.1; in that of YQINCLGSYDNLQCMIGGHV, 5.965 ± 0.037.
In the case of LLHLQYHLFMLCTVVNPHLL it was -0.628 ± 0.54; in that of SHEMGGFHNSNL, -1.56 ± 1; in that of VLGYPKTSTVHALPHTTMLP, 0.943 ± 0.53.
RQTSLKRL had an amyloid nucleation score of -0.159 ± 1.
In the case of SVKCWRWFGA it was 1.73 ± 0.27; in that of GLKNRVWL, 1.05 ± 0.26.
In the case of CFIENILRFGSW it was 3.1 ± 0.052; in that of MIMHNVANDWTVFYFLCRVV, -0.723 ± 0.55.
The figure for FMEGTRHCGKYFSC is 0.938 ± 0.26.
In turn, VTLQPFCSARSWLEMNVKFF gave an amyloid nucleation score of 4.44 ± 0.066.
In the case of NFHGSASNCDAIVYANFTMH it was 4.61 ± 0.086.
On to GLWVV, for which the amyloid nucleation score was -1.02 ± 1.1.
The figure for YTCCLL is 5.914 ± 0.035; for NSLVAVSLSAWWKPGDGSFS it is 6.29 ± 0.085; for WSWRGS it is 0.629 ± 0.52.
In the case of FSCEACIFLLYSYMFMNL it was -0.522 ± 0.55.

Values taken from the supplement of paper PMC12042874.
